biological target: HLA-A*02:01 (Homo sapiens, UniProt P04439, D140Y/D185E/D98H/E176V/E277Q/G131W/G231S/I119V/I121R/I166T/I218V/L300P/L318F/N151K/N90K/P208A/P217A/Q86G/Q94H/R138H/R169H/T345S); assay: MHC binding assay (UV-ligand exchange, β2m ELISA, peptide exchange yield); details: MHC class I binding score; binding to HLA-A*02:01 ranged by peptide exchange yield (UV-ligand exchange, β2m ELISA)
Description: Candidate peptides for T cell based therapies according to the present invention were further tested for their MHC binding capacity (affinity). The individual peptide-MHC complexes were produced by UV-ligand exchange, where a UV-sensitive peptide is cleaved upon UV-irradiation, and exchanged with the peptide of interest as analyzed. Only peptide candidates that can effectively bind and stabilize the peptide-receptive MHC molecules prevent dissociation of the MHC complexes. To determine the yield of the exchange reaction, an ELISA was performed based on the detection of the light chain (β2m) of stabilized MHC complexes. The assay was performed as generally described in Rodenko et al. (Rodenko et al., 2006).
96 well MAXISorp plates (NUNC) were coated over night with 2 ug/ml streptavidin in PBS at room temperature, washed 4× and blocked for 1h at 37° C. in 2% BSA containing blocking buffer. […] Peptide-MHC monomers of the UV-exchange reaction were diluted 100 fold in blocking buffer. Samples were incubated for 1h at 37° C., washed four times, incubated with 2 ug/ml HRP conjugated anti-β2m for 1h at 37° C., washed again and detected with TMB solution that is stopped with […]. Absorption was measured at 450 nm. Candidate peptides that show a high exchange yield (preferably higher than 50%, most preferred higher than 75%) are generally preferred for a generation and production of antibodies or fragments thereof, and/or T cell receptors or fragments thereof, as they show sufficient avidity to the MHC molecules and prevent dissociation of the MHC complexes.

Peptide exchange, “++++” (≧75% = ++++):
137 (TLVLTLPTV; listed as Homo sapiens) [compound 137], 159 (GLVGNPLPSV; listed as Homo sapiens) [compound 159], 168 (KILDADIQL; listed as Homo sapiens) [compound 168], 177 (YLLPEEYTSTL; listed as Homo sapiens) [compound 177], 178 (ALTEIAFVV; listed as Homo sapiens) [compound 178], 196 (YLYSVEIKL; listed as Homo sapiens) [compound 196]

Peptide exchange, “+” (≧10% = +):
153 (FLIANVLYL; listed as Homo sapiens) [compound 153]

Peptide exchange, “+++” (≧50 = +++):
132 (LLVEQPPLAGV; listed as Homo sapiens) [compound 132], 134 (YLQELIFSV; listed as Homo sapiens) [compound 134], 135 (ALSEVDFQL; listed as Homo sapiens) [compound 135], 136 (YLADPSNLFVV; listed as Homo sapiens) [compound 136], 138 (YQYPRAILSV; listed as Homo sapiens) [compound 138], 139 (SVMEVNSGIYRV; listed as Homo sapiens) [compound 139], 142 (FLFATPVFI; listed as Homo sapiens) [compound 142], 144 (YIMEPSIFNTL; listed as Homo sapiens) [compound 144], 147 (SLLEAVSFL; listed as Homo sapiens) [compound 147], 149 (NLLELFVQL; listed as Homo sapiens) [compound 149], 151 (KILQQLVTL; listed as Homo sapiens) [compound 151], 155 (RVANLHFPSV; listed as Homo sapiens) [compound 155], 158 (KLFDVDEDGYI; listed as Homo sapiens) [compound 158], 160 (FLFDEEIEQI; listed as Homo sapiens) [compound 160], 161 (ALLEGVNTV; listed as Homo sapiens) [compound 161], 162 (YQQAQVPSV; listed as Homo sapiens) [compound 162], 163 (ALDEMGDLLQL; listed as Homo sapiens) [compound 163], 164 (ALLPQPKNLTV; listed as Homo sapiens) [compound 164], 165 (SLLDEIRAV; listed as Homo sapiens) [compound 165], 167 (KVLEVTEEFGV; listed as Homo sapiens) [compound 167], 169 (NLPEYLPFV; listed as Homo sapiens) [compound 169], 170 (RLQETLSAA; listed as Homo sapiens) [compound 170], 171 (LLLPLQILL; listed as Homo sapiens) [compound 171], 173 (LLDSASAGLYL; listed as Homo sapiens) [compound 173], 174 (ALAQYLITA; listed as Homo sapiens) [compound 174], 175 (YLFENISQL; listed as Homo sapiens) [compound 175], 179 (KVLNELYTV; listed as Homo sapiens) [compound 179], 181 (LLWAGTAFQV; listed as Homo sapiens) [compound 181], 182 (MLLEAPGIFL; listed as Homo sapiens) [compound 182], 183 (FGLDLVTEL; listed as Homo sapiens) [compound 183], 184 (YLMDINGKMWL; listed as Homo sapiens) [compound 184], 187 (RQISIRGIVGV; listed as Homo sapiens) [compound 187], 188 (GLFPVTPEAV; listed as Homo sapiens) [compound 188], 189 (ALQRKLPYV; listed as Homo sapiens) [compound 189], 190 (FLSSLTETI; listed as Homo sapiens) [compound 190], 192 (KMLDGASFTL; listed as Homo sapiens) [compound 192], 193 (QLLDADGFLNV; listed as Homo sapiens) [compound 193], 194 (ALPLFVITV; listed as Homo sapiens) [compound 194], 195 (GLFADLLPRL; listed as Homo sapiens) [compound 195], 200 (LLFGSVQEV; listed as Homo sapiens) [compound 200], 201 (RLVDYLEGI; listed as Homo sapiens) [compound 201], 202 (ALLDQQGSRWTL; listed as Homo sapiens) [compound 202], 205 (SLYPGTETMGL; listed as Homo sapiens) [compound 205], 206 (VLQEGKLQKLAQL; listed as Homo sapiens) [compound 206], 208 (KISPVTFSV; listed as Homo sapiens) [compound 208]

Peptide exchange, “++” (≧20% = ++):
131 (FVPPVTVFPSL; listed as Homo sapiens) [compound 131], 133 (KVLSNIHTV; listed as Homo sapiens) [compound 133], 140 (YMDAPKAAL; listed as Homo sapiens) [compound 140], 145 (FLATSGTLAGI; listed as Homo sapiens) [compound 145], 146 (SLATAGDGLIEL; listed as Homo sapiens) [compound 146], 148 (ALNPEIVSV; listed as Homo sapiens) [compound 148], 154 (ALDDGTPAL; listed as Homo sapiens) [compound 154], 172 (VLYSYTIITV; listed as Homo sapiens) [compound 172], 176 (YLMEGSYNKVFL; listed as Homo sapiens) [compound 176], 180 (FQIDPHSGLVTV; listed as Homo sapiens) [compound 180], 185 (FLIDDKGYTL; listed as Homo sapiens) [compound 185], 186 (TLFFQQNAL; listed as Homo sapiens) [compound 186], 197 (ALGPEGGRV; listed as Homo sapiens) [compound 197], 204 (KIAENVEEV; listed as Homo sapiens) [compound 204], 207 (GLTSTNAEV; listed as Homo sapiens) [compound 207], 209 (KLIESKHEV; listed as Homo sapiens) [compound 209], 210 (LLLNAVLTV; listed as Homo sapiens) [compound 210], 211 (LLWPGAALL; listed as Homo sapiens) [compound 211], 212 (ALWDQDNLSV; listed as Homo sapiens) [compound 212]
